# Assay results published in PMC3539133.
# T1: dADAR dsRBD1 (UniProt Q9NII1 48-140)
# T1 sequence: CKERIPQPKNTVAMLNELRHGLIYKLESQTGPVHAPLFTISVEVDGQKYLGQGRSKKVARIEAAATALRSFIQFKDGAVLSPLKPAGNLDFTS
# Target: T1, dADAR dsRBD1
# Assay: ITC
binder,measurement,value
GGUAGUAUAACAAUAUCCGUGUUGUUAUAGUACC (structured_RNA) [GluR-2 R/G upper stem-loop (GluR-2 USL) with GluR-3 tetraloop],Kd,400 ± 50 nM
